Experimental data as given in patent US20240092918A1 (Novartis, published 2024).

B1: 674J13 (Humanized, CysMab DAPA) (antibody, human IgG1, kappa, V domains shown)
VH: DVQLQESGPGLVKPSQTLSLTCTVSGYSITSGYSWHWIRQHPGKGLEWMAHIHSSGSTNYNPSLKSRITISRDTSKNQFSLKLSSVTAADTAVYYCARGGVQAFAYWGQGTLVTVSS
VL: EIVLTQSPATLSASPGERVTMSCSASSSVIYMHWYQQKPGQAPRRWIYDTSKLASGVPARFSGSGSGTDYTLTISSMEPEDAAVYYCQQWSSNPLTFGQGTKLEIKR
notes: Human IgG1 kappa, E152C/S375C, D265A/P329A; In the pHrodo assay it carried maleimide-pHrodo (DAR 4); also called 674J13.CysMab.DAPA; 674J13.DAPA
B2: 121G12 (Humanized CysMab, DAPA) (antibody, human IgG1, kappa)
heavy: EVQLVESGGGLVKPGGSLRLSCAASGFTFSTYAMSWVRQAPGKGLEWVATISDAGSYSYYPDNVKGRFTISRDNAKNSLYLQMNSLRAEDTAVYYCARRGSRYEEYYVMDYWGQGTTVTVSSASTKGPSVFPLAPSSKSTSGGTAALGCLVKDYFPCPVTVSWNSGALTSGVHTFPAVLQSSGLYSLSSVVTVPSSSLGTQTYICNVNHKPSNTKVDKRVEPKSCDKTHTCPPCPAPELLGGPSVFLFPPKPKDTLMISRTPEVTCVVVAVSHEDPEVKFNWYVDGVEVHNAKTKPREEQYNSTYRVVSVLTVLHQDWLNGKEYKCKVSNKALAAPIEKTISKAKGQPREPQVYTLPPSREEMTKNQVSLTCLVKGFYPCDIAVEWESNGQPENNYKTTPPVLDSDGSFFLYSKLTVDKSRWQQGNVFSCSVMHEALHNHYTQKSLSLSPGK
light: EIVLTQSPATLSVSPGERVTLSCRASQSISNNLHWYQQKPGQAPRLLIKYASQSISGIPARFSGSGSGTDFTLTISSVEPEDFGVYFCQQSSSWLTFGQGTKLEIKRTVAAPSVFIFPPSDEQLKSGTASVVCLLNNFYPREAKVQWKVDNALQSGNSQESVTEQDSKDSTYSLSSTLTLSKADYEKHKVYACEVTHQGLSSPVTKSFNRGEC
notes: Human IgG1 kappa, E152C/S375C, D265A/P329A; In the pHrodo assay it carried maleimide-pHrodo (DAR 4); also called 121G12.CysMab.DAPA; 121G12.DAPA
B3: 121G12 humanized CysMab (Fc Wild Type) (antibody, human IgG1, V domains shown)
VH: EVQLVESGGGLVKPGGSLRLSCAASGFTFSTYAMSWVRQAPGKGLEWVATISDAGSYSYYPDNVKGRFTISRDNAKNSLYLQMNSLRAEDTAVYYCARRGSRYEEYYVMDYWGQGTTVTVSS
VL: EIVLTQSPATLSVSPGERVTLSCRASQSISNNLHWYQQKPGQAPRLLIKYASQSISGIPARFSGSGSGTDFTLTISSVEPEDFGVYFCQQSSSWLTFGQGTKLEIK
notes: Human IgG1 kappa with E152C/S375C (CysMab) and wild type Fc

Key:
Human CCR7 [1] = biological target: T1, Human CCR7 (human, UniProt P32248 25-378); test: FACS competition on DEL cells (CCR7+), antibody titrated up to 100 nM applied together with the competitor CCL19 kept at 1 uM (panel 'ligand 1uM'), detection anti-hFc.PE, MFI [panel ligand 1uM]
T1 construct: also called hCCR7; NIH3T3.hCCR7
T1 sequence: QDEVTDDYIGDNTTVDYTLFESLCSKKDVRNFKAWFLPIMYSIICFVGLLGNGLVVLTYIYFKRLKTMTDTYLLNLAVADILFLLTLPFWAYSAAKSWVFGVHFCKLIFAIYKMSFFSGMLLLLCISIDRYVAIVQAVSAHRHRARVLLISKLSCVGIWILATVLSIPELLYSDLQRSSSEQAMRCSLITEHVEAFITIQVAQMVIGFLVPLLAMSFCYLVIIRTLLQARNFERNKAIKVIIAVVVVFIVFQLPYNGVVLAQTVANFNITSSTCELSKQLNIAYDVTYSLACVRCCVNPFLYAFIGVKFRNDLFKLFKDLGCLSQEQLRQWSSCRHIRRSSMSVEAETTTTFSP

Human CCR7 [2] = biological target: T1, Human CCR7; test: cell-based or functional assay
[3] = biological target: T2, recombinant CCR7 (Origene #TP306614) (human, UniProt P32248 25-378, limits assumed); test: ELISA, plate coated with 3.5 ug/ml recombinant CCR7 (Origene #TP306614), antibody in serial dilution, detection anti-hFc gamma-HRP, absorbance at 650 nm
T2 construct: Bought protein coated on ELISA plates; also called recombinant hCCR7
T2 sequence (looked up): T1 sequence
Method: Binding and affinity was also assessed in an ELISA-based assay using recombinant CCR7 (Origene #TP306614). Maxisorp™ 384-well plates (Thermo Nunc) were coated with 3.5 μg/ml of recombinant CCR7 diluted in PBS. After blocking with 3% BSA (bovine serum albumin) in PBS for 1 hr at room temperature, washing plates 3× with PBS-T (0.01% Tween 20 in PBS), primary antibodies were added in a serial dilution and incubated for 1 hr at room temperature.

Rat CCR7 = biological target: T3, Rat CCR7 (rat, UniProt P47774 25-378 (mouse entry)); test: FACS, NIH3T3 cell series and CD4+ T cells
T3 construct: On NIH3T3 cells or CD4+ T cells of Wistar rats; also called NIH3T3.rat CCR7
T3 chain: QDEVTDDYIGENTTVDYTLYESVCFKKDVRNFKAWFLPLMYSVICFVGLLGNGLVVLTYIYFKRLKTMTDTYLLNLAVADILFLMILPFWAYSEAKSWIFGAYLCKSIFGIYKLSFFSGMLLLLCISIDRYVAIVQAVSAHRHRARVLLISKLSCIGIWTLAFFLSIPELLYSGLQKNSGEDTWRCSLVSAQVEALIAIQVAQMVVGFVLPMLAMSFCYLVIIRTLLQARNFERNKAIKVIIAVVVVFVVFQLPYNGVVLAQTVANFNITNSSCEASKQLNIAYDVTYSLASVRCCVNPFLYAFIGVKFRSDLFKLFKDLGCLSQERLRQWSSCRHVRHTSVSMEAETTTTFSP
Method: (§1) For this purpose, CCR7 positive cells were harvested (adherent cells were detached with Accutase), washed twice with FACS buffer (PBS/3% FCS/0.02% sodium azide) and diluted to approximately 2×10⁶ cells/ml in FACS buffer. All subsequent steps were done on ice to prevent internalization of the receptor. 100 μl cell suspension/well were transferred into 96-well U-bottom plates (Falcon). 2×10⁵ cells/well were incubated with a serial dilution of antibody concentrations of the anti-CCR7 antibody-of-interest ranging across several logs, starting at a high of 100 nM for 60 minutes at 4° C., gently shaking. Following incubation, cells were spun down (1200 rpm, 2 min, 4° C.) and washed three times with FACS buffer. A fluorophore-conjugated anti-hFc gamma-APC (Jackson ImmunoResearch) detection antibody was added at 1:400 and samples were incubated for 1 h on ice in the dark, gently shaken. After a final wash, cells were resuspended in 100 μl of FACS buffer containing 0.2 μg/ml DAPI followed by readout on the flow cytometry machine (BD LSRFortessa Cell Analyzer; Cat #647177). Mean fluorescence intensity (MFI) of live, single cells was calculated in Flowjo 10.0.8 and exported into Graphpad Prism6 for EC50 determination.

Mouse CCR7 = biological target: T4, Mouse CCR7 (mouse, UniProt P47774 25-378); test: FACS, NIH3T3 cell series and CD4+ T cells
T4 construct: On NIH3T3 cells or CD4+ T cells of CD-1 mice; also called NIH3T3.mouse CCR7
T4 sequence: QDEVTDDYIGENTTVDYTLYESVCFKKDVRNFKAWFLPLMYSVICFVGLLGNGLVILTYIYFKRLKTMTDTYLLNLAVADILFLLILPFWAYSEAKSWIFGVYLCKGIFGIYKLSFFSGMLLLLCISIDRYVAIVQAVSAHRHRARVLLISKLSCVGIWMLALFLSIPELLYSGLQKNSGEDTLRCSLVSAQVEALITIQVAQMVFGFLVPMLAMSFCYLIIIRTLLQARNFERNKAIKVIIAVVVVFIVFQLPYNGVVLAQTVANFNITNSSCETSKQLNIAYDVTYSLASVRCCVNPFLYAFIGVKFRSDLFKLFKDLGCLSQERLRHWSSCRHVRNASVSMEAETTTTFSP
Method: as §1

| Binder | EC50 (read off the curve) (Human CCR7 [1]) [nM] | pHrodo (6 h MFI), uptake of pHrodo-labelled antibody at 5 ug/ml, CD4+ T cells (2000 receptors) (Human CCR7 [2]) [MFI] | pHrodo (6 h MFI), uptake of pHrodo-labelled antibody at 5 ug/ml, CMLT1 cells (19583 receptors) (Human CCR7 [2]) [MFI] | pHrodo (6 h MFI), uptake of pHrodo-labelled antibody at 5 ug/ml, DEL cells (110685 receptors) (Human CCR7 [2]) [MFI] | pHrodo (6 h MFI), uptake of pHrodo-labelled antibody at 5 ug/ml, JVM3 cells (8717 receptors) (Human CCR7 [2]) [MFI] | pHrodo (6 h MFI), uptake of pHrodo-labelled antibody at 5 ug/ml, Jeko-1 cells (28852 receptors) (Human CCR7 [2]) [MFI] | pHrodo (6 h MFI), uptake of pHrodo-labelled antibody at 5 ug/ml, KE97 cells (152093 receptors) (Human CCR7 [2]) [MFI] | pHrodo (6 h MFI), uptake of pHrodo-labelled antibody at 5 ug/ml, L540 cells (167549 receptors) (Human CCR7 [2]) [MFI] | pHrodo (6 h MFI), uptake of pHrodo-labelled antibody at 5 ug/ml, L1236 cells (61602 receptors) (Human CCR7 [2]) [MFI] | pHrodo (6 h MFI), uptake of pHrodo-labelled antibody at 5 ug/ml, MJ cells (111121 receptors) (Human CCR7 [2]) [MFI] | pHrodo (6 h MFI), uptake of pHrodo-labelled antibody at 5 ug/ml, MOTN1 cells (84200 receptors) (Human CCR7 [2]) [MFI] | pHrodo (6 h MFI), uptake of pHrodo-labelled antibody at 5 ug/ml, Mec2 cells (50840 receptors) (Human CCR7 [2]) [MFI] | EC50 (read off the curve) [3] [nM] | binding result (Rat CCR7) | binding result (Mouse CCR7) |
| --- | --- | --- | --- | --- | --- | --- | --- | --- | --- | --- | --- | --- | --- | --- | --- |
| B1 | 2 to 3 | 402 | 561 | 3780 | 146 | 1390 | 4420 | 11800 | 5820 | 3260 | 2540 | 3000 |  |  |  |
| B2 |  | 278 | 301 | 1910 | 148 | 450 | 1570 | 6840 | 1240 | 1650 | 1030 | 1340 | ~0.7 |  |  |
| B3 |  |  |  |  |  |  |  |  |  |  |  |  |  | no binding | no binding |
